Experimental data: paper doi:10.1101/2020.10.21.349050
Substitutions are numbered along the chain they refer to. Where two headings read alike, the source gives them in different places.

T1: GST-Swi6 (Schizosaccharomyces pombe, UniProt P40381 1-328)
T1 sequence: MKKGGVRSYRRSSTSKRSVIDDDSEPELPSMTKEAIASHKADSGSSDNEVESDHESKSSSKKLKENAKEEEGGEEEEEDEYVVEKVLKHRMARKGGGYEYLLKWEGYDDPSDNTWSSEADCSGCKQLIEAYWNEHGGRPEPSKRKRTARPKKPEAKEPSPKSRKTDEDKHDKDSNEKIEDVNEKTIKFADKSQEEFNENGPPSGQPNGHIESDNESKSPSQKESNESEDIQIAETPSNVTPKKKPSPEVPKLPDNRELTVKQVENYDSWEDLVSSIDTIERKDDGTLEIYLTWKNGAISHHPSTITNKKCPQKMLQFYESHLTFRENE

T2: GST-Swi6 3K->3A (Schizosaccharomyces pombe, UniProt P40381 1-328, K242A;K243A;K244A)
T2 sequence: T1 sequence with K242A, K243A, K244A

B1: D-For RNA-DNA hybrid (DNA:RNA)
RNA: UGGAUUAAGGAGAAGCGGUA
DNA: TACCGCTTCTCCTTAATCCA

Tests used:
Assay in all cases: EMSA
GST-Swi6 [1] = biological target: T1, GST-Swi6
GST-Swi6 [2] = biological target: T1, GST-Swi6; remark: listed apart in the source
GST-Swi6 [3] = biological target: T1, GST-Swi6; remark: listed apart in the source
GST-Swi6 [4] = biological target: T1, GST-Swi6; remark: listed apart in the source
GST-Swi6 3K->3A = biological target: T2, GST-Swi6 3K->3A
GST-Swi6 [5] = biological target: T1, GST-Swi6; remark: listed apart in the source

| Binder | Kd (GST-Swi6 [2]) [nM] | Kd (GST-Swi6 [3]) [nM] | also measured |
| --- | --- | --- | --- |
| UACCGCUUCUCCUUAAUCCA (ssRNA) [D-Rev RNA] | – | – | binding result (GST-Swi6 [1]): no binding |
| UGGAUUAAGGAGAAGCGGUA (ssRNA) [D-For RNA] | 1790 | 2450 | – |
| ACAAGUGAUAAGAGUAGGUGU (ssRNA) [E-For RNA] | – | – | Kd (GST-Swi6 [4]): 2150 ± 100 nM |
| B1 | 730 | 80 | binding result (GST-Swi6 3K->3A): no binding; Kd (GST-Swi6 [5]): 90 nM |
